Experimental findings from the RNAGym collection of RNA variant scans (doi:10.7554/elife.90254) are described below.

B1: LINE1-full (parent)
chain: UACGUAGGUGGUUUUCCCCUGAUAGUGCUAAGGGGGCCUGGAAGUUUGGACUGGGCAGAGCUCAACACAGCGUGGCAAAGUGGCUGUGGCUAGACUGCCUCUCUGGAUUCCUCGUCACUCAGCAGGGCAUCUCUGAGAGAAAUGCC

Variants of B1 are the subject of this data set. The experiment in a line: self-cleavage, relative activity (ratio to wild type); higher = more cleavage; in vitro, sequencing; the parent is a self-cleaving ribozyme.
As to G60A U91C, the self-cleavage was 0. In the case of G60A A141G, the self-cleavage came out at 0.02. On to G60A U85C, for which the self-cleavage turned out to be 0.01. The result for A64G A121G reads 0.28; that for A64G A140G, 0.26; that for U62C A138U, 0.01.

As for A64C C145U, the self-cleavage came out at 0.4.

U62A G82A: the self-cleavage was 0.03.

As for A59U G114A, the self-cleavage was 0.54. As to A59U A64G, the self-cleavage was 0.09.

For U62C A141U, the self-cleavage was 0.03. As for U62C A77G, the self-cleavage turned out to be 0.08. The result for U62C A77U reads 0.03; that for U62C G137A, 0.17; that for C63U U91C, 0.18.

Consider C63U U91G, for which the self-cleavage was found to be 0.04. The result for G60A A142G reads 0.04. The result for A59G G114C reads 0.03; that for U62C G74A, 0.04; that for A59U A140G, 0.89. The result for C61G A67U reads 0.04; that for C61A U81C, 0.04; that for C61U U112G, 0.04. In the case of G60A A92G, the self-cleavage was 0.03. For the variant U62A A69G, the self-cleavage was found to be 0.02. In the case of U62A A69U, the self-cleavage was determined as 0.05. As for U62G A67G, the self-cleavage came to 0.09. The result for A64C U132C reads 0.34. As for U62A U143C, the self-cleavage was 0.05. Take U62A U143G: the self-cleavage was determined as 0.08.

As to U62C G88U, the self-cleavage stood at 0.04. Take C63A A65G: the self-cleavage was 0.02. Regarding U62A U85G, the self-cleavage came out at 0.

For the variant U62A U85A, the self-cleavage is 0.02. U62A U85C: the self-cleavage was found to be 0.08. C63U A69G: the self-cleavage was 0.17. The result for C63U U143A reads 0.44; that for C63U U143C, 0.3; that for U62C C76U, 0.07.

With U62C A65U, the self-cleavage turned out to be 0.01. The result for A59U U62A reads 0.05; that for A59U U62C, 0.06. The result for A59U U62G reads 0.04; that for A59U A67U, 0.1; that for A59U A69U, 0.04. The result for U62C A107U reads 0.06; that for U62C C113G, 0.07; that for G60A A79G, 0.05. Regarding C63U U119G, the self-cleavage was 0.37. In the case of A64C A65U, the self-cleavage came to 0.06. The result for A64C A65G reads 0.19; that for U62C U96C, 0.06; that for A59G U73C, 0.07. For U62C G122C, the self-cleavage was found to be 0.03. The result for U62C G122A reads 0.04. The result for A59U C71U reads 0.64. The result for A64G A79G reads 0.24; that for U62A A78G, 0.05; that for G60U U85C, 0.03. For U62C U130C, the self-cleavage is 0.06. As to U62C U87A, the self-cleavage was 0.04. For U62C U87C, the self-cleavage came to 0.05.

With U62C C118U, the self-cleavage came out at 0.03. The result for G60A A65U reads 0.05; that for A59G U104A, 0.14; that for A59U U132C, 0.71. The result for A59U U73C reads 1.27; that for U62C G89A, 0.01; that for U62G U108C, 0.07. Consider C61U A140G, for which the self-cleavage amounted to 0.03.

Regarding U62C A94G, the self-cleavage turned out to be 0.11. The result for U62C A94C reads 0.07; that for A64C U112C, 0.29. Regarding A59U U112A, the self-cleavage was determined as 0.83.

Consider A59U U112C, for which the self-cleavage turned out to be 1.51.

In the case of A59G U96A, the self-cleavage was determined as 0.07.

Take C63U U73G: the self-cleavage stood at 0.21. On to A59G G127A, for which the self-cleavage is 0.07. As for C61U A65C, the self-cleavage turned out to be 0.03. The result for U62G A136G reads 0; that for C61A U104C, 0.04; that for A59U C99U, 0.46. In the case of A59U A138C, the self-cleavage amounted to 1.23. The result for A59U A138U reads 0.88; that for A59U A138G, 0.83; that for A64G C66U, 0.08. The result for G60C U115C reads 0.02; that for C61G A77G, 0.07. As for U62C U119A, the self-cleavage was found to be 0.07.

In the case of U62C U119C, the self-cleavage worked out at 0.07. The result for A64G A136G reads 0.22; that for A64G A136U, 0.28. The result for U62G U87A reads 0.1. The result for U62G U87G reads 0. Turning to G60U U62C, the self-cleavage stood at 0.08. With U62C A140U, the self-cleavage is 0.04. The result for C61U U87C reads 0.03; that for U62C C90U, 0.05; that for U62A G144A, 0.05. As to A64C A141G, the self-cleavage was 0.48. In the case of A64C A141U, the self-cleavage is 0.3. For the variant U62C G127A, the self-cleavage is 0.06.

On to G60A U143A, for which the self-cleavage was 0.05.

Turning to C61G A129C, the self-cleavage amounted to 0.03. The result for C63U U87A reads 0.07; that for U62A C84U, 0.04; that for G60A A136G, 0.02.

As to U62A G72C, the self-cleavage worked out at 0.03. Regarding U62A G72A, the self-cleavage stood at 0.01.

On to C61A A79G, for which the self-cleavage was 0.02.

With A64C A67G, the self-cleavage was found to be 0.04. The result for U62A A65C reads 0.07.

A64G A141C: the self-cleavage is 0.11. Turning to A64G A141U, the self-cleavage was 0.17. The result for A64C U108C reads 0.39; that for U62A A117G, 0.08; that for U62A A117C, 0.05. The result for A59U C63A reads 0.02.

U62A A92G: the self-cleavage was determined as 0.07. As for U62A A92U, the self-cleavage was found to be 0.03. The result for A59U A117U reads 0.8. The result for C61U A79G reads 0.01. For U62C G114A, the self-cleavage was 0.05.

As to A59U U104A, the self-cleavage turned out to be 0.81. The result for U62G U73C reads 0; that for U62A U119A, 0.04. With A64G A67G, the self-cleavage was 0.09. For the variant A64G A67U, the self-cleavage is 0.11. The result for C61U U73G reads 0.16. Take C61U U73A: the self-cleavage worked out at 0.02.

Turning to U62A G93U, the self-cleavage worked out at 0.03. The result for A64G A138U reads 0.27. Consider A59U U134C, for which the self-cleavage is 0.92. For the variant A64C A69U, the self-cleavage came to 0.05. As for A59U U87C, the self-cleavage came out at 0.22. Take A59G U112C: the self-cleavage stood at 0.13. On to A59G U112A, for which the self-cleavage was 0.09. In the case of A59G U143A, the self-cleavage was 0.08.

For U62A U115C, the self-cleavage stood at 0.04. The result for U62A C120U reads 0.02; that for G60A U132C, 0.03. The result for C63A A94G reads 0.08; that for U62C A121U, 0.04; that for U62C A121G, 0.1. On to A64G A69G, for which the self-cleavage was 0.07. Regarding A64G A69U, the self-cleavage came out at 0.08. The result for A64G A69C reads 0; that for A59U A136G, 1.1. Turning to C61U G114U, the self-cleavage turned out to be 0.01.

On to A59G U109C, for which the self-cleavage amounted to 0.17. C63A U73A: the self-cleavage amounted to 0.06. Take U62C U85G: the self-cleavage amounted to 0. Regarding C63A U104C, the self-cleavage is 0.07. The result for U62A A136U reads 0.14; that for U62A A136G, 0.03.

For the variant U62C C98A, the self-cleavage came to 0.03. The result for U62C C98U reads 0.02; that for A59G G89A, 0.01; that for A59G G89U, 0.02. The result for U62C U91G reads 0; that for G60A A78G, 0.04. Turning to G60A A78U, the self-cleavage was 0.02. U62C G93U: the self-cleavage came to 0.03. For the variant A59U G75A, the self-cleavage turned out to be 0.51.

For C63A U81A, the self-cleavage turned out to be 0.06.

For the variant U62G C63U, the self-cleavage came out at 0.07. The result for U62C C146U reads 0.03.
